Assay [1] addresses pSer413(Im) peptide (human). In words: SPR (Biacore 3000), antibody captured by anti-mouse antibody, peptide as analyte, single cycle kinetics. A general note: SPR reads the build-up and loss of mass on a sensor chip optically.
In another assay the target is T1, pS46 tau peptide.
T1 construct: Partial peptide of tau coated on the ELISA plate
T1 peptide: GLKE[pS]P
In words: peptide ELISA. Background: ELISA stands for enzyme-linked immunosorbent assay.

The next assay addresses T2, pT217 tau peptide.
T2 construct: Partial peptide of tau coated on the ELISA plate
T2 peptide: PSLP[pT]PPTR
In words: peptide ELISA.

The next assay deals with T3, pS400-BSA (phosphorylated as its name says (pS400); conjugated to BSA).
T3 construct: BSA-conjugated tau peptide coated on the ELISA plate
In words: peptide ELISA.

The target in a further assay is T4, pS202 tau peptide.
T4 construct: Partial peptide of tau coated on the ELISA plate
T4 peptide: SSPG[pS]SPGTPC
In words: peptide ELISA.

Another assay deals with T5, pT212 tau peptide.
T5 construct: Partial peptide of tau coated on the ELISA plate
T5 peptide: SRSR[pT]PSLPTP
As to the kind of experiment: peptide ELISA.

Another assay has as its target T6, pS412-BSA (phosphorylated as its name says (pS412); conjugated to BSA).
T6 construct: BSA-conjugated tau peptide coated on the ELISA plate
In words: peptide ELISA.

The target in the next assay is T7, pS199 tau peptide.
T7 construct: Partial peptide of tau coated on the ELISA plate
T7 peptide: SGYS[pS]PGSPG
In words: peptide ELISA.

A further assay concerns the target T8, pS214 tau peptide.
T8 peptide: SRSRTP[pS]LPTP
In words: peptide ELISA.

In the next assay the target is T9, pT212/pS214 tau peptide.
T9 peptide: SRSR[pT]P[pS]LPTP
In words: peptide ELISA.

Non-standard residues stand in square brackets, D forms with d. No end group written: not given here. pT = C[C@@H](OP(=O)(O)O)[C@H](N)C(=O)O; pS = N[C@@H](COP(=O)(O)O)C(=O)O

The record followed here is patent US20220340646A1 (OSAKA CITY UNIVERSITY, published 2022).

Chain of pSer413(Im) peptide (human) (peptide, as listed by the source): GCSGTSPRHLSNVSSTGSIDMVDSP
T6 sequence (P02769 25-607 limits assumed): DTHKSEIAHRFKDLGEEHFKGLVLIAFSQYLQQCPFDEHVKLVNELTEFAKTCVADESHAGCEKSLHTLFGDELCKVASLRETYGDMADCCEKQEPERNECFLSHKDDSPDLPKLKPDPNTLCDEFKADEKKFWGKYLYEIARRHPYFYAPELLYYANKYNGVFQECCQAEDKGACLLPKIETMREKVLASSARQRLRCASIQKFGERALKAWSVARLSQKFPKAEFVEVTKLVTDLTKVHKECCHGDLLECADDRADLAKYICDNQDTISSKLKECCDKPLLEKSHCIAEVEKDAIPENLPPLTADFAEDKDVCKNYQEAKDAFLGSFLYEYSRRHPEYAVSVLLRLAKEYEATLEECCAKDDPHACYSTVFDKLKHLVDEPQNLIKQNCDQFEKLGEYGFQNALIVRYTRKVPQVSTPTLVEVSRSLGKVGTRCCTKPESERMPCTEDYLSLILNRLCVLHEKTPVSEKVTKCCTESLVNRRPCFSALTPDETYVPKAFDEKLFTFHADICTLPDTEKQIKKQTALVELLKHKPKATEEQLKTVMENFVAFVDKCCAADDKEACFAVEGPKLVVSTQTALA
T3 sequence (P02769 25-607 limits assumed): as above

B1: Ta1505 (antibody, V domains shown)
VH: EVQLVESGGGLVQPKGSLKLSCAASGFAFNSFALNWVRQAPGKSLEWVVHIRSKTNNYATFYADSVKDRFTVSRDDSQSMVYLQMNNLKTEDTGIYYCVRRGPRDSWFGYWGQGTLVTVSA
VL: DILMTQTPLSLPVSLGDQASISCRSSQNIVHSNGNTYLEWYLQKPGQSPKVLIYTVSNRFSGVPDRFSGSGSGTDFTLKISRVEAEDLGVYYCFQGSHLPLTFGGGTKL
notes: also called Ta1505-2
As a reminder, the Kd is the concentration at which binding is half-saturated. As usually defined, the koff is the rate constant with which the complex falls apart. For orientation: kon means a measure of how fast the partners come together. Read a low kon as slower complex formation. Take B1: the Kd in assay [1] came out at 3.87 nM. The koff in assay [1] was determined as 0.000499 s⁻¹. In addition, the kon in assay [1] was 129000 M⁻¹ s⁻¹. Also, the binding result with pS46 tau peptide, with pT217 tau peptide, with pS400-BSA, in the assay with pS202 tau peptide, in the assay with pT212 tau peptide and in the assay with pS412-BSA was “no binding (tested: 1 µg/mL)” in each case. Besides, the binding result with pS199 tau peptide, with pS214 tau peptide and with pT212/pS214 tau peptide was “no binding (tested: 1 µg/mL)” throughout.

B2: Ta1506 (antibody, V domains shown)
VH: EVHLVESGGGLVQPKGSLKLSCAASGFAFNSFAMNWVRQAPGKALDWIAHIRSKTNNYVTFYADSVKGRFSISRDDSQSMVYLQMNNLQTEDTGIYYCVRRGPRDSWFGYWGQGTLVTVSA
VL: GVLMTQIPLSLPVSLGDQASISCRSSQNIVHSNGNTYLEWYLQKPGQSPKVLIYTVSNRFSGVPDRFSGSGSGTDFTLKISRVEAEDLGVYYCFQGSHLPLTFGGGTKL
notes: also called Ta15 Series
Regarding B2, the Kd in assay [1] amounted to 9.75 nM. The off-rate constant (koff) in [1] was found to be 0.00194 s⁻¹. In assay [1], the kon turned out to be 199000 M⁻¹ s⁻¹. Further, the binding result with pS46 tau peptide, with pT217 tau peptide, in the assay with pS400-BSA, with pS202 tau peptide, with pT212 tau peptide and in the assay with pS412-BSA was “no binding (tested: 1 µg/mL)” each time. The binding result with pS199 tau peptide, with pS214 tau peptide and with pT212/pS214 tau peptide was “no binding (tested: 1 µg/mL)” each time.

B3: Ta1508 (antibody, V domains shown)
VH: EVHLVESGGGLVQPKGSLKLSCAASGFAFNSFAMNWVRQAPGKGLDWIAHIRSKTNNYVTFYADSVKGRFSISRDDSQSMVYLQMNNLQTEDTGIYYCVRRGPRDSWFGYWGQGTLVTVSA
VL: VVLMTQTPLSLPVSLGDQASISCRSSQNIVHSNGNTYLEWYLQKPGQSPKVLIYTVSNRFSGVPDRFSGSGSGTDFTLKISRVEAEDLGVYYCFQGSHLPLTFGGGTKL
notes: also called Ta15 Series
B3 yielded a Kd in [1] of 6.76 nM. The molecule further displayed a koff in assay [1] of 0.00098 s⁻¹. The molecule also showed a kon in assay [1] of 145000 M⁻¹ s⁻¹. The binding result with pS46 tau peptide, in the assay with pT217 tau peptide, with pS400-BSA, with pS202 tau peptide, with pT212 tau peptide and with pS412-BSA was “no binding (tested: 1 µg/mL)” throughout. Also, the binding result with pS199 tau peptide, with pS214 tau peptide and with pT212/pS214 tau peptide was “no binding (tested: 1 µg/mL)” throughout.

B4: Ta1509 (antibody, V domains shown)
VH: EVQLVESGGGLVQPKGSLKLSCAASGFAFNSFAMNWVRQAPGKGLDWIAHIRSKSNNYVTFYADSVKDRFIISRDDSQSMIYLQMNNLKTEDSGIYYCVRRGPRDSWFGYWGQGTLVTVSA
VL: DVLMTQSPLSLPVSLGDQASISCRSSQNIVHTNGNTYLEWYLQKPGQSPKVLIYTVSNRFSGVPDRFSGSGSGTDFTLKISRVEAEDLGVYYCFQGSHLPLTFGGGTKL
notes: also called Ta15 Series
As for B4, the Kd in assay [1] was found to be 14.4 nM. In [1], this molecule returned a koff of 0.00125 s⁻¹. In assay [1], the kon worked out at 87100 M⁻¹ s⁻¹. In addition, the binding result with pS46 tau peptide, in the assay with pT217 tau peptide, in the assay with pS400-BSA, with pS202 tau peptide, with pT212 tau peptide and in the assay with pS412-BSA was “no binding (tested: 1 µg/mL)” throughout. Besides, the binding result with pS199 tau peptide, with pS214 tau peptide and with pT212/pS214 tau peptide was “no binding (tested: 1 µg/mL)” in each case.

B5: Ta1502 (antibody, V domains shown)
VH: EVQLVESGGGLVQPKGSLKLSCAASGFAFNSFALNWVRQAPGKSLEWVVHIRSKTNNYATFYADSVKDRFTVSRDDSQNMVYLQMNNLKTEDTGIYYCVRRGPRDSWFGYWGQGTLVTVSA
VL: DILMTQTPLSLPVSLGDQASISCRSSQNIVHSNGNTYLEWYLQKPGQSPKVLIYTVSNRFSGVPDRFSGSGSGTDFTLKISRVEAEDLGVYYCFQGSHLPLTFGGGTKL
notes: also called Ta15 Series
In [1], B5 showed a Kd of 4.2 nM. This molecule showed a koff in assay [1] of 0.00047 s⁻¹. In addition, the kon in assay [1] came out at 112000 M⁻¹ s⁻¹. Also, the binding result with pS46 tau peptide, with pT217 tau peptide, in the assay with pS400-BSA, with pS202 tau peptide, in the assay with pT212 tau peptide and with pS412-BSA was “no binding (tested: 1 µg/mL)” in each case. For the same molecule, the binding result with pS199 tau peptide, in the assay with pS214 tau peptide and with pT212/pS214 tau peptide was “no binding (tested: 1 µg/mL)” throughout.

B6: Ta1507 (antibody, V domains shown)
VH: EIQLVESGGGLVQPKGSLKLSCAASGFAFSSFALNWVRQAPGKSLDWVAHIRSKANHYVTFYADSVKDRFTVSRDDSQSMVYLQMNNLKTEDTGIYYCVRRGPRDSWFGYWGQGTLVTVSA
VL: DVLLTQTPLSLPVSLGDQASISCRSSQNIVHSNGNTYLEWYLQKPGQSPKVLIYTVSNRFSGVPDRFSGSGSGTDFTLKISRVEAEDLGVYYCFQGSHLPLTFGGGTKL
notes: also called Ta15 Series
The molecule B6 showed a Kd in [1] of 4.2 nM. In [1], this molecule registered a koff of 0.000533 s⁻¹. For the same molecule, the kon in assay [1] came out at 127000 M⁻¹ s⁻¹. For the same molecule, the binding result with pS46 tau peptide, with pT217 tau peptide, with pS400-BSA, in the assay with pS202 tau peptide, with pT212 tau peptide and with pS412-BSA was “no binding (tested: 1 µg/mL)” each time. For the same molecule, the binding result in the assay with pS199 tau peptide, with pS214 tau peptide and with pT212/pS214 tau peptide was “no binding (tested: 1 µg/mL)” in each case.

B7: Ta1501 (antibody, V domains shown)
VH: EVHLVESGGELVQPKGSLKLSCAASGFAFNSFAMNWVRQTPGKGLNWVAHIRSKTNNYATFYADSVKDRFTISRDDSQNMLYLQMNNLKTEDTGIYYCVRRGPRDSWFGYWGQGTLVTVSA
VL: DVLMTQTPLSLPVSLGDHASISCRSSQNIVHSNGNTYLEWYLQKPGQSPKVLIYTVSNRFSGVPDRFSGSGSGTDFTLKISRVEAEDLGVYYCFQGSHLPLTFGGGTKL
notes: also called Ta15 Series
B7 yielded a Kd in assay [1] of 18.6 nM. Also, the koff in assay [1] came to 0.00105 s⁻¹. Further, the kon in assay [1] is 56400 M⁻¹ s⁻¹. In addition, the binding result with pS46 tau peptide, in the assay with pT217 tau peptide, with pS400-BSA, with pS202 tau peptide, in the assay with pT212 tau peptide and with pS412-BSA was “no binding (tested: 1 µg/mL)” throughout. Also, the binding result with pS199 tau peptide, with pS214 tau peptide and with pT212/pS214 tau peptide was “no binding (tested: 1 µg/mL)” in each case.
